These results are taken from article PMC8439657, “Bipartite binding and partial inhibition links DEPTOR and mTOR in a mutually antagonistic embrace” (eLife, 2021).

The assay deals with T1, mTOR FRB domain, residues 2015-2114 (human, UniProt P42345 2015-2114).
T1 construct: mTOR, human, FRB domain, residues 2015-2114; The methods describe the purification of the GST-FRB fusion and mention no TEV cleavage; also called isolated FRB domain; source: E. coli C41(DE3)RIPL, purified (Glutathione-Sepharose, HiTrapQ, Superdex 75)
As to the kind of experiment: NMR titration; up to 220 µM unlabelled linker-PDZ added to 40 µM 15N-labelled FRB; 1H-15N BEST-TROSY, chemical shift perturbation; 278K, pH 8, 50 mM HEPES, 200 mM NaCl. To be noted: both partners purified.

T1 sequence (P42345 2015-2114): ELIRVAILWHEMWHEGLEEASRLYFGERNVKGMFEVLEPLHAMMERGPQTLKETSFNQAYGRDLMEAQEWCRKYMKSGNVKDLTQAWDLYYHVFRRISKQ

B1: DEPTOR long-linker-PDZ, residues 228-409 (domain or fragment)
chain: MELLNEKSPSSQETHDSPFCLRKQSHDNRKSTSFMSVSPSKEIKIVSAVRRSSMSSCGSSGYFSSSPTLSSSPPVLCNPKSVLKRPVTSEELLTPGAPYARKTFTIVGDAVGWGFVVRGSKPCHIQAVDPSGPAAAAGMKVCQFVVSVNGLNVLHVDYRTVSNLILTGPRTIVMEVMEELEC
modifications: GST tag left out (TEV-cleavable). pOPL111 states no variant, so the reference sequence is used. The full-length WT clone is the S204/N389 natural variant, so residue 389 of this construct may be N …
In the case of B1, the equilibrium dissociation constant (Kd) was around 500 µM.
